Measurements as given in US20100285015A1.

Tests used:
[1] = biological target: glycophorin A associated protein (GPA) on mouse red blood cells (mouse); assay: 125I-labeled fusion on mouse RBCs, 1% hematocrit, saturation binding (FIG. 4C)
[2] = biological target: glycophorin A associated protein (GPA) on mouse red blood cells (mouse); assay: 125I-labeled fusion at 40 µg/ml on mouse RBCs at ~50% hematocrit in PBS/BSA or heparinated plasma, 37° C, time course
[3] = biological target: glycophorin A associated protein (GPA) on mouse red blood cells (mouse); assay: 125I-labeled fusion injected i.v. in mice; RBC vs plasma radioactivity in blood (in vivo)
[4] = biological target: human red blood cells (human); assay: 125I-labeled fusion on human RBCs, 10% hematocrit, 1 h at 37° C, gamma counting
[5] = biological target: glycophorin A associated protein (GPA) on mouse red blood cells (mouse); assay: preloaded mouse RBCs injected in mice; RBC vs plasma radioactivity (in vivo)
[6] = biological target: glycophorin A associated protein (GPA) on mouse red blood cells (mouse); assay: 125I-labeled fusion on mouse RBCs, 10% hematocrit, 1 h at 37° C, gamma counting

Bmax (molecules/RBC) [1]: 80000
Kd [1]: 77.9 nM
50% saturation time [2]: 30 min
percent associated with RBC [3]: 90%
molecules/hRBC (molecules/hRBC) [4]: 120
percent of fusion in the bloodstream associated with RBCs (one hour) [5]: 90 % ID
percent of fusion in the bloodstream associated with RBCs (three hours) [5]: 75 % ID
molecules/mRBC (molecules/mRBC) [6]: 20000
B1: Ter119scFv-mRNK fusion protein (protein)
chain: RSPWPGVPTSQVKLQESGGGLVQPGGSLKLSCVASGFTFRDHWMNWVRQAPGKTMEWIGDIRPDGSDTNYAPSVRNRFTISRDNARSILYLQMSNMRSDYTATYYCVRDSPTRAGLMDAWGQGASVTVLTGGGGSGGGGSGGGGSDIQMIQSPSVLSASVGDRVTLNCKASQNINKYLNWYQQKLGEAPKVLIYNTNNLQTGIPSRFSGSGSGTDFTLTISSLQPEDFATYFCFQHYTWPTFGGGTKLELKRASSSSGSSSSGAAAPKGKSEDCYVGKGVTYRGTHSLTTSQASCLPWNSIVLMGKSYTAWRTNSQALGLGRHNYCRNPDGDARPWCHVMKDRKLTWEYCDMSPCSTCGLRQYKRPQFRIKGGLYTDITSHPWQAPIFVAAAASPGERFLCGGVLISSCWVLSAAHCFLERFPPNHLKVVLGRTYRVVPGEEEQTFEIEKYIVHEEFDDDTYDNDIALLQLRSQSKQCAQESSSVGTACLPDPNLQLPDWTECELSGYGKHEASSPFFSDRLKEAHVRLYPSSRCTSQHLFNKTVTNNMLCAGDTRSGGNQDLHDACQGDSGGPLVCMINKQMTLTGIISWGLGCGQKDVPGVYTKVTNYLDWIHDNMKQ
modifications: 125I radiolabel in the binding assays
